IntAct's records for PubMed 19037259

B1: Protein VAC14 homolog (Homo sapiens), Q08AM6 (parent)
chain: MNPEKDFAPLTPNIVRALNDKLYEKRKVAALEIEKLVREFVAQNNTVQIKHVIQTLSQEFALSQHPHSRKGGLIGLAACSIALGKDSGLYLKELIEPVLTCFNDADSRLRYYACEALYNIVKVARGAVLPHFNVLFDGLSKLAADPDPNVKSGSELLDRLLKDIVTESNKFDLVSFIPLLRERIYSNNQYARQFIISWILVLESVPDINLLDYLPEILDGLFQILGDNGKEIRKMCEVVLGEFLKEIKKNPSSVKFAEMANILVIHCQTTDDLIQLTAMCWMREFIQLAGRVMLPYSSGILTAVLPCLAYDDRKKSIKEVANVCNQSLMKLVTPEDDELDELRPGQRQAEPTPDDALPKQEGTASGGPDGSCDSSFSSGISVFTAASTERAPVTLHLDGIVQVLNCHLSDTAIGMMTRIAVLKWLYHLYIKTPRKMFRHTDSLFPILLQTLSDESDEVILKDLEVLAEIASSPAGQTDDPGPLDGPDLQASHSELQVPTPGRAGLLNTSGTKGLECSPSTPTMNSYFYKFMINLLKRFSSERKLLEVRGPFIIRQLCLLLNAENIFHSMADILLREEDLKFASTMVHALNTILLTSTELFQLRNQLKDLKTLESQNLFCCLYRSWCHNPVTTVSLCFLTQNYRHAYDLIQKFGDLEVTVDFLAEVDKLVQLIECPIFTYLRLQLLDVKNNPYLIKALYGLLMLLPQSSAFQLLSHRLQCVPNPELLQTEDSLKAAPKSQKADSPSIDYAELLQHFEKVQNKHLEVRHQRSGRGDHLDRRVVL
partner: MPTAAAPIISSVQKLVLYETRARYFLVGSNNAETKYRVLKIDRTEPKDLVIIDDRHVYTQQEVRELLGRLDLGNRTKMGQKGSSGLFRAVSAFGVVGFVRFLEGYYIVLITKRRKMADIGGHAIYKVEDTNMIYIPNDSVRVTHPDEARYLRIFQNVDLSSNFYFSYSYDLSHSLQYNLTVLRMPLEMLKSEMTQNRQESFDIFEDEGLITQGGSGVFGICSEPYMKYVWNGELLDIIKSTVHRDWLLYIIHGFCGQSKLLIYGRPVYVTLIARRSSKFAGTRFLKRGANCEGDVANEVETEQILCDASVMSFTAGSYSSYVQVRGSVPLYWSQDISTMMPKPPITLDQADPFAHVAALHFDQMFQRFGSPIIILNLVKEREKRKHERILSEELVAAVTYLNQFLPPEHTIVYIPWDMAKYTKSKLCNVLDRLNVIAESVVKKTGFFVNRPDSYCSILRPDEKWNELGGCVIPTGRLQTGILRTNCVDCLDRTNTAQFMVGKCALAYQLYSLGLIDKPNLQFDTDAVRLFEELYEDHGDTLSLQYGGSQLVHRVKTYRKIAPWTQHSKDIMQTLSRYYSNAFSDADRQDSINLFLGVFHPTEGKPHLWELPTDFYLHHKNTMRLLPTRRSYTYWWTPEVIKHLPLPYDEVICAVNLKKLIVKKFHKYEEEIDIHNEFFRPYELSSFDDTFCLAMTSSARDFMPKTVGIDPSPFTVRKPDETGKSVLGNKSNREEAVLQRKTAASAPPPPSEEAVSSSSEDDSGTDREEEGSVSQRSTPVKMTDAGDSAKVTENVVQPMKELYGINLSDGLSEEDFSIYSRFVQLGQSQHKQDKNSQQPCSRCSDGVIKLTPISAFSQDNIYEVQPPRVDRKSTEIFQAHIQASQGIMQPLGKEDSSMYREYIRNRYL
B2: Protein VAC14 homolog (Homo sapiens), Q08AM6 (parent)
chain: B1 chain
B3: Vacuole morphology and inheritance protein 14 (Saccharomyces cerevisiae), Q06708 (parent)
chain: MEKSIAKGLSDKLYEKRKAAALELEKLVKQCVLEGDYDRIDKIIDELCRDYAYALHQPMARNAGLMGLAATAIALGINDVGRYLRNILPPVLACFGDQNDQVRFYACESLYNIAKIAKGEILVYFNEIFDVLCKISADTENSVRGAAELLDRLIKDIVAERASNYISIVNNGSHGLLPAIKTDPISGDVYQEEYEQDNQLAFSLPKFIPLLTERIYAINPDTRVFLVDWLKVLLNTPGLELISYLPSFLGGLFTFLGDSHKDVRTVTHTLMDSLLHEVDRISKLQTEIKMKRLERLKMLEDKYNNSSTPTKKADGALIAEKKKTLMTALGGLSKPLSMETDDTKLSNTNETDDERHLTSQEQLLDSEATSQEPLRDGEEYIPGQDINLNFPEVITVLVNNLASSEAEIQLIALHWIQVILSISPNVFIPFLSKILSVLLKLLSDSDPHITEIAQLVNGQLLSLCSSYVGKETDGKIAYGPIVNSLTLQFFDSRIDAKIACLDWLILIYHKAPNQILKHNDSMFLTLLKSLSNRDSVLIEKALSLLQSLCSDSNDNYLRQFLQDLLTLFKRDTKLVKTRANFIMRQISSRLSPERVYKVISSILDNYNDTTFVKMMIQILSTNLITSPEMSSLRNKLRTCEDGMFFNSLFKSWCPNPVSVISLCFVAENYELAYTVLQTYANYELKLNDLVQLDILIQLFESPVFTRMRLQLLEQQKHPFLHKCLFGILMIIPQSKAFETLNRRLNSLNIWTSQSYVMNNYIRQRENSNFCDSNSDISQRSVSQSKLHFQELINHFKAVSEEDEYSSDMIRLDHGANNKSLLLGSFLDGIDEDKQEIVTPISPMNEAINEEMESPNDNSSVILKDSGSLPFNRNVSDKLKK
B4: Vacuole morphology and inheritance protein 14 (Saccharomyces cerevisiae), Q06708 (parent)
chain: B3 chain
partner: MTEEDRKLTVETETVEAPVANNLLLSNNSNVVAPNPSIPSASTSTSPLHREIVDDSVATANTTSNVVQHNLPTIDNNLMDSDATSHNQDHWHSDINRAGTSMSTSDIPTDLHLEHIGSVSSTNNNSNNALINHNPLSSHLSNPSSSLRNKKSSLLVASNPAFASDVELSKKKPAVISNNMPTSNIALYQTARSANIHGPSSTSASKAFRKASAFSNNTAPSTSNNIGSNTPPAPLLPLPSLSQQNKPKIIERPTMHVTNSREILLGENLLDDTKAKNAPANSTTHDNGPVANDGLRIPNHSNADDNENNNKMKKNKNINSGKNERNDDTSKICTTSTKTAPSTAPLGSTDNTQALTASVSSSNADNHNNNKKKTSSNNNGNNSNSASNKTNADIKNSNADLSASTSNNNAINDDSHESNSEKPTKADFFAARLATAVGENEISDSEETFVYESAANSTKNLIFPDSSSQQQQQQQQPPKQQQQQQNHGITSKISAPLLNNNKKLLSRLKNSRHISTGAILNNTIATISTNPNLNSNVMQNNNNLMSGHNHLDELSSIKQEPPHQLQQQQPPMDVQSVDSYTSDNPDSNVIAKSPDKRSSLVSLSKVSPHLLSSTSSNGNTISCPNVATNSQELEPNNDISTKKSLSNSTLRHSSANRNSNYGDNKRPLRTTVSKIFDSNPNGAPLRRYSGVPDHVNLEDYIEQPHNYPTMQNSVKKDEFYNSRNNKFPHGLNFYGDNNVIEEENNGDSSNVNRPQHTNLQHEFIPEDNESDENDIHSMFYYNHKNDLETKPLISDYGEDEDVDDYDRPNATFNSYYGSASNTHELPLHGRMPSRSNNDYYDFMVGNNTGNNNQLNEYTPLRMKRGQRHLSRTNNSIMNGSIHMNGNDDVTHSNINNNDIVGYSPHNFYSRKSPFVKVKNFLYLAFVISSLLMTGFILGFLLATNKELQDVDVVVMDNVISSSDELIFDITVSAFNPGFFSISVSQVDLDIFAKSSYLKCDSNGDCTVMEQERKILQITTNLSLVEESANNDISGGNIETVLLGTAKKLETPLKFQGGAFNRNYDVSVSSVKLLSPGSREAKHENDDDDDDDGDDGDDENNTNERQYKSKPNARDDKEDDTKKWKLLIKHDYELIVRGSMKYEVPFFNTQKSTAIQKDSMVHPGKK
B5: Vacuole morphology and inheritance protein 14 (Saccharomyces cerevisiae), Q06708 (parent)
chain: B3 chain
partner: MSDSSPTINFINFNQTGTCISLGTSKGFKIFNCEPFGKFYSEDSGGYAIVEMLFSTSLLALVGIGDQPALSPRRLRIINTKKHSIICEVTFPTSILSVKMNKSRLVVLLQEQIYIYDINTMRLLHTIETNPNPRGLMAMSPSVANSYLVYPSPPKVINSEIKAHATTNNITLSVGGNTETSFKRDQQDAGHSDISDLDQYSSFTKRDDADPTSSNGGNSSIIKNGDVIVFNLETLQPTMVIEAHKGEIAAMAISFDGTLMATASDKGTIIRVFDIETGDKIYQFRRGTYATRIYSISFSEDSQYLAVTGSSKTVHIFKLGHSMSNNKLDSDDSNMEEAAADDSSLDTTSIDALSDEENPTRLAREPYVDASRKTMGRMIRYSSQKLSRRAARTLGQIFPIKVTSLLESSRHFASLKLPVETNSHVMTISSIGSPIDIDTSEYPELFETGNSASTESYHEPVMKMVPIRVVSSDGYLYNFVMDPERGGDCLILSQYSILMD

Variants of: B1
Conditions: with fig4_human FIG4, Q92562

Row | Variant | effect of a mutation on the interaction
1 | L156R | disrupting interaction

Variants of: B2
Conditions: with fyv1_human PIKFYVE

Row | Variant | effect of a mutation on the interaction
2 | L156R | disrupting interaction

Variants of: B3
Conditions: with fab1_yeast FAB1, P34756
Chain of fab1_yeast FAB1, P34756 (P34756 whole entry): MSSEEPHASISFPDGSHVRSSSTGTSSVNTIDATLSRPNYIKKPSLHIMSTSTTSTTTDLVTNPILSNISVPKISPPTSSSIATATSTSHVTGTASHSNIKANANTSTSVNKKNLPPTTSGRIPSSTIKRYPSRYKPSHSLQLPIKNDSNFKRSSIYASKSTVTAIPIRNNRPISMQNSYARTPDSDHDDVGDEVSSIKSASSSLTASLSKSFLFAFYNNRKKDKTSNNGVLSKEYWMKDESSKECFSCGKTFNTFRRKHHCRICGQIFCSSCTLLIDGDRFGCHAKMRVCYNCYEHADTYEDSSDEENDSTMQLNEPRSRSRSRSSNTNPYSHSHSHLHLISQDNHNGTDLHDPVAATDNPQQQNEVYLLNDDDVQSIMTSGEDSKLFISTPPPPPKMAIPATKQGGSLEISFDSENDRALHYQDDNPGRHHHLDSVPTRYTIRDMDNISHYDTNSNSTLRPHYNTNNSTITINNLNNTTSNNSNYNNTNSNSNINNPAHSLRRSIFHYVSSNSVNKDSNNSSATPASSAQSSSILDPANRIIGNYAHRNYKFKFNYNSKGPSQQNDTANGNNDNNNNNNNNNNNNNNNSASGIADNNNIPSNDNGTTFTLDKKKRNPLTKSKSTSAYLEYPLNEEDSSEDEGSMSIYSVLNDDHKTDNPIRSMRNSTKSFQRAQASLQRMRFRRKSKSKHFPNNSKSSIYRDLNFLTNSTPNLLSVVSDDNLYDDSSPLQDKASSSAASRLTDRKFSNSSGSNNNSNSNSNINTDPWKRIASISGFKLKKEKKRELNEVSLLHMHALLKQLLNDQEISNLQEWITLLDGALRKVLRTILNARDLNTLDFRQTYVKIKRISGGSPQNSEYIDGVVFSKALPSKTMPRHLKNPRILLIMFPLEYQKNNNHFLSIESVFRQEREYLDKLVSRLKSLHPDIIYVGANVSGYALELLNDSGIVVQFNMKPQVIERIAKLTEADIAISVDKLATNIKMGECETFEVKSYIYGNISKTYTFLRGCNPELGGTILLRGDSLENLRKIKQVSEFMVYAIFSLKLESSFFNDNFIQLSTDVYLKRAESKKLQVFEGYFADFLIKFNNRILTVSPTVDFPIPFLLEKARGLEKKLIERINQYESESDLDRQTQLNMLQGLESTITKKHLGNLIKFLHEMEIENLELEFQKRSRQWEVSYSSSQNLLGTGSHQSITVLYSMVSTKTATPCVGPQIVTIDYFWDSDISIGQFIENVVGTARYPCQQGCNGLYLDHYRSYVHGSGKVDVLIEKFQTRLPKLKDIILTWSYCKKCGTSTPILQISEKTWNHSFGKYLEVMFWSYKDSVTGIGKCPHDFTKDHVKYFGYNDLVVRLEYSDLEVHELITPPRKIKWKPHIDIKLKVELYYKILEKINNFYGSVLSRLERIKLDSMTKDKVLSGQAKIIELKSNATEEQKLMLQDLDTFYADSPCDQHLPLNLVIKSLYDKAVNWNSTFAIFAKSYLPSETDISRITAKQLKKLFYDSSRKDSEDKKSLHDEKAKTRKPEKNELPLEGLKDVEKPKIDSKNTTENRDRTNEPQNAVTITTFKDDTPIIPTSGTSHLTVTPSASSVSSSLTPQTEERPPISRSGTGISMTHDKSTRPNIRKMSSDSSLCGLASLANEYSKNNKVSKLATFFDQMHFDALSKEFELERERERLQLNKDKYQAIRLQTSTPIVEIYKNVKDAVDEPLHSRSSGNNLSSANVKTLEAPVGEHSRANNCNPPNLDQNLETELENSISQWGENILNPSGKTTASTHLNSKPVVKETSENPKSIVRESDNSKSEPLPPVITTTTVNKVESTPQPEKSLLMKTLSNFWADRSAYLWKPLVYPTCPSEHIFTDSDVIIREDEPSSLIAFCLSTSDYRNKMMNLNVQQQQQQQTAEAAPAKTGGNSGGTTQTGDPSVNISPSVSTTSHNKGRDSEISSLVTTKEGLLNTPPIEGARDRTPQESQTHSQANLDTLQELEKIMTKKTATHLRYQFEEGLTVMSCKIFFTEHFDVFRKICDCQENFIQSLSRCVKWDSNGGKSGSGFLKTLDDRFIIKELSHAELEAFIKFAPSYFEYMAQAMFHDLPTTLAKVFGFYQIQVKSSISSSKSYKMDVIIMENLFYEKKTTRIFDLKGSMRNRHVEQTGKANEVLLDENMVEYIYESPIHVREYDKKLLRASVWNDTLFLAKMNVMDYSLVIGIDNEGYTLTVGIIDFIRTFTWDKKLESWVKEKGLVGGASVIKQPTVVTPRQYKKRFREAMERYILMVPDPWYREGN

Row | Variant | effect of a mutation on the interaction
3 | L149R | disrupting interaction

Variants of: B4
Conditions: with vac7_yeast VAC7, P53950

Row | Variant | effect of a mutation on the interaction
4 | L149R | disrupting interaction

Variants of: B4
Conditions: with vac7_yeast VAC7, P53950
Remark: another data set of the same source

Row | Variant | effect of a mutation on the interaction
5 | Q101R | disrupting interaction
6 | R61K | disrupting interaction
7 | L329I | disrupting interaction
8 | H56Y | disrupting interaction

Variants of: B5
Conditions: with atg18_yeast ATG18, P43601

Row | Variant | effect of a mutation on the interaction
9 | L149R | disrupting interaction

Variants of: B5
Conditions: with atg18_yeast ATG18, P43601
Remark: another data set of the same source

Row | Variant | effect of a mutation on the interaction
10 | H56Y | disrupting interaction
11 | R61K | disrupting interaction
12 | Q101R | disrupting interaction
13 | L329I | disrupting interaction
